Measured values reported in article PMC2581932 (Cell, 2008).

B1: Pyrococcus furiosus NurA (enzyme, UniProt Q8U1N8 1-451, looked up)
chain: MRLLSKQSIERITKILLDELENVRENEQIRNIINSWKPLPSPEKSSIYAVDGSRSVSRLSGTVIYFLSALAVGSGKQLRLSYANAIKSNYGTSDQIVRMQMETLENMLGYLAYRKLEGEKRAILMDGTLTGSLVRPPVYPEDIRSLNVMRALIGESDFENLLNEFLEKLRDHYRKVEEHLEKNGNYDSPILTDNVVEKLRKKYIDTKVIAYGSGKVKVKIPRKALGYSPRVIPIEVLESSRGKSVDELLQELDEEKVELYLGKDDIYDALHMTLSYIEYLYSIDKLLEVKNLAYIAKSFYTKTLARTLGVEIVDTALLDAVIRTLIGHEKEGYLEIEHAVVPPKWSFPDFLLSKFRNIEKLIDKGIHLAYVRFEQGDVIYMLQSTTNIEKILPLILHHKAGGYLRPLQLAHHGVKISYKEARHTLEALINALRNRDPALKIFVKYGRSPLE
B2: Pyrococcus furiosus HerA (enzyme, UniProt Q8U1P0 1-551, looked up)
chain: MEEFVGIVRGEASFTSYEFSINPSANVSFGEFVVTKNRDGDLVLGTVRHVKNVNWLLSSVKSNFNSLALDIEEYGESLGENEEVVATVRILGKIEGNELVPNRVPIRNGEYVYKASDDLLQMIYGNDGIEIGTLLLRPNVRIKLDVNELVSRHFAVLAVTGAGKSNAVAVIIKGIVEDVGGTVVVLDPHGDYVNLRLPETGIDLVNIIDGKIRIEDLDPEELADLIGISSSAQIQRHFLSLAWETVKHKNQSLGGESLLEALLDLLNEWISRKTIKYWSEKEGRMKSEDLKSERIETIRGIIFRIRRFLRNYGNIVTSENLVAAIKPGMVNVIDLSPLDENQMKVVVGKFLEAVFEKRVEYEMARKRFEKETSKKKRDEYEEIMTEIESKYPALAYPILVIVEEAHIFAPQGEENDAMRIMGRIAREGRKFGVGLGVVSQRPSKLNEDILSQMNTKIILRIVNPRDQDYVLKASEQLSKDLMDDIAGLGKGEAVIVGQAIKLPALVRIYNFKELRGKAGTGQYGGEDIGILDRWNKMKRNMVNSLDIDIDF

Assays:
[1] = molecular target: B2; assay: SEC
[2] = molecular target: the molecule itself; assay: SEC

Binder	stoichiometry N [1]	binding result [2]
B1	1 to 3 NurA monomers per HerA hexamer	
B2		binds
